Results on three molecules are retold here after patent US20250230251A1 (Bristol-Myers Squibb, published 2025).

As usually defined, the Kd is the concentration at which binding is half-saturated. The koff is the rate constant with which the complex falls apart. Low readings indicate slow dissociation, high ones fast dissociation. Usually kon stands for the rate constant with which the complex forms. High values mean fast association, low ones slow association.

For one experiment, the target named is T1, human IL-18Rβ on cells (human, UniProt O95256 20-599).
T1 sequence: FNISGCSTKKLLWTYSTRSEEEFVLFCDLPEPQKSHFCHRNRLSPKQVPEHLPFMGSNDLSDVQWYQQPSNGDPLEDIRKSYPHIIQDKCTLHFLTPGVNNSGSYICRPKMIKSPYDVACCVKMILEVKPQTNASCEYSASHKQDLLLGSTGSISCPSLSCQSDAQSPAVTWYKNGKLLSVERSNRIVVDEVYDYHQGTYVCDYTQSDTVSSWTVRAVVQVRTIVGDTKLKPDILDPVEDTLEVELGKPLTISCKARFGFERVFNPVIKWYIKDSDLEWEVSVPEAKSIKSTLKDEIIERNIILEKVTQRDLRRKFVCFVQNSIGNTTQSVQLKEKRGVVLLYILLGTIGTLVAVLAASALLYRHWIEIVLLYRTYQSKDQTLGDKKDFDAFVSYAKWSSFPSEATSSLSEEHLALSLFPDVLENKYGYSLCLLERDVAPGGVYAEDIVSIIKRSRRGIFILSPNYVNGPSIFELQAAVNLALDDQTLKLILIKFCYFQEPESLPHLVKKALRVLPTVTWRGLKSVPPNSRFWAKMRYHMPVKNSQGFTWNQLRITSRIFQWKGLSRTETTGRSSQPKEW
The experiment in a line: cell-based or functional assay.

For experiment [1], the target named is T2, huIL-18Rβ-HisAvi (human, UniProt O95256 20-356, biotinylated in the Octet blocking assay).
T2 construct: Soluble analyte in all SPR runs; captured on streptavidin sensors in the Octet assay; also called human IL-18Rβ; human IL-18Rβ-Avi-His
T2 sequence: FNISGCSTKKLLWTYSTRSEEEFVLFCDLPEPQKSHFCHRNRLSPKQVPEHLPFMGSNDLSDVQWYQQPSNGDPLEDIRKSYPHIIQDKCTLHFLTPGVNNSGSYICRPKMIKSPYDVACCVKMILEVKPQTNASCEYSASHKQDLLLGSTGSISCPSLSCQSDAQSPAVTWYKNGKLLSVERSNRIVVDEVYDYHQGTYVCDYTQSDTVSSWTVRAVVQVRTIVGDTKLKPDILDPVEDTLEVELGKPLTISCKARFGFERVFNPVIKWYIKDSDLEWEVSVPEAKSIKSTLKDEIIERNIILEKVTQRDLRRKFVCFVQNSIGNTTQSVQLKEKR
As to the kind of experiment: SPR T200, mAb on anti-hFc, 37C, pH 6.

The target of experiment [2] is T3, cyIL-18Rβ-HisAvi (cynomolgus monkey).
T3 construct: Soluble analyte in SPR; also called cyno IL-18Rβ; cynomolgus monkey IL-18Rβ
T3 chain: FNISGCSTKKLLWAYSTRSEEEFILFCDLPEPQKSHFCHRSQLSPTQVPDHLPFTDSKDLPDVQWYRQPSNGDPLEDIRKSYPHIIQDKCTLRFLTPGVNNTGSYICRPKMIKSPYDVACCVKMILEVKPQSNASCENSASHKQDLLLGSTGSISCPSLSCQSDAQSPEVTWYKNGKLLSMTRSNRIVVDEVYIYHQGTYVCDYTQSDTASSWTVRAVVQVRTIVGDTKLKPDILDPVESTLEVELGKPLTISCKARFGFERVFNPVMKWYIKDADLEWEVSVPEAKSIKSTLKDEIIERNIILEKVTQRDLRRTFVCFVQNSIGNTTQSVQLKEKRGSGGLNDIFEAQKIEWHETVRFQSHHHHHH
The experiment in a line: SPR T200, mAb on anti-hFc, 37C, pH 6.

Experiment [3] deals with T2, huIL-18Rβ-HisAvi. As to the kind of experiment: SPR T200, mAb on anti-hFc, 37C, pH 7.4.
Experiment [4] concerns the target T3, cyIL-18Rβ-HisAvi. As to the kind of experiment: SPR T200, mAb on anti-hFc, 37C, pH 7.4.
The target in experiment [5] is T2, huIL-18Rβ-HisAvi. The experiment in a line: SPR T200, pH 7; sample T0.
Experiment [6] concerns the target T2, huIL-18Rβ-HisAvi. As to the kind of experiment: SPR T200, pH 7; sample 4 w 4C.
Experiment [7] addresses T2, huIL-18Rβ-HisAvi. The experiment in a line: SPR T200, pH 7; sample 2 w 40C.
The target in experiment [8] is T2, huIL-18Rβ-HisAvi. The experiment in a line: SPR T200, pH 7; sample 4 w 40C.

B1: P20-V2 (antibody, human IgG1, kappa, V domains shown)
VH: QVQLQESGPGLVKPSETLSLTCTVSGGSINNYYWSWIRQPPGKGLEWIGYIFYSGTTNYNPSLKSRVTISVDTSKNQFSLKLSSVTAADTAVYYCARDVGIAARNSYYYVMDVWGQGTTVTVSS
VL: AIQLTQSPSSLSASVGDRVTITCRASQGISSALAWYQQKPGKAPKFLIYEGSSLESGVPSRFSGSGSGTDFTLTISSLQPEDFATYYCQQFNSYPITFGQGTRLEIKR
notes: Variant of P20
Regarding B1, in the experiment with human IL-18Rβ on cells, the “Average IC50, LPS+IL-12 dependent IFNg production, human whole blood” value (from here on “Average IC50”) amounted to 0.37 nM. Further, the Kd with huIL-18Rβ-HisAvi [1] came to 0.29 nM; in the experiment with cyIL-18Rβ-HisAvi [2] it was 1.4 nM; with huIL-18Rβ-HisAvi [3], 0.24 nM; in the experiment with cyIL-18Rβ-HisAvi [4] it was 0.92 nM. Moreover, the koff with huIL-18Rβ-HisAvi [1] was determined as 0.00013 s⁻¹; in the experiment with cyIL-18Rβ-HisAvi [2] it was 0.00023 s⁻¹; in the experiment with huIL-18Rβ-HisAvi [3] it was 8.9e-05 s⁻¹; with cyIL-18Rβ-HisAvi [4] it was 0.00016 s⁻¹. In addition, the kon with huIL-18Rβ-HisAvi [1] is 440000 M⁻¹ s⁻¹; with cyIL-18Rβ-HisAvi [2] it was 160000 M⁻¹ s⁻¹; with huIL-18Rβ-HisAvi [3], 360000 M⁻¹ s⁻¹; with cyIL-18Rβ-HisAvi [4], 180000 M⁻¹ s⁻¹.

B2: P20-V3 (antibody, human IgG1, kappa, V domains shown)
VH: QVQLQESGPGLVKPSETLSLTCTVSGGSINNYYWSWIRQPPGKGLEWIGYIFYSGTTNYNPSLKSRVTISVDTSKNQFSLKLSSVTAADTAVYYCARDVGIAARNSYYYVMDVWGQGTTVTVSS
VL: AIQLTQSPSSLSASVGDRVTITCRASQGISSALAWYQQKPGKAPKFLIYGASSLESGVPSRFSGSGSGTDFTLTISSLQPEDFATYYCQQFNSYPITFGQGTRLEIKR
notes: Variant of P20
For B2, the “Average IC50” value in the experiment with human IL-18Rβ on cells was found to be 1.52 nM. The Kd in the experiment with huIL-18Rβ-HisAvi [1] is 0.36 nM; in the experiment with cyIL-18Rβ-HisAvi [2] it was 2.4 nM; with huIL-18Rβ-HisAvi [3], 0.72 nM; in the experiment with cyIL-18Rβ-HisAvi [4], 1.5 nM. Also, the koff with huIL-18Rβ-HisAvi [1] amounted to 0.00014 s⁻¹; with cyIL-18Rβ-HisAvi [2], 0.00042 s⁻¹; in the experiment with huIL-18Rβ-HisAvi [3] it was 0.00019 s⁻¹; in the experiment with cyIL-18Rβ-HisAvi [4], 0.0003 s⁻¹. The kon is 390000 M⁻¹ s⁻¹ with huIL-18Rβ-HisAvi [1], 180000 M⁻¹ s⁻¹ with cyIL-18Rβ-HisAvi [2], 270000 M⁻¹ s⁻¹ in the experiment with huIL-18Rβ-HisAvi [3] and 200000 M⁻¹ s⁻¹ in the experiment with cyIL-18Rβ-HisAvi [4].

B3: P21-V1 (antibody, human IgG1, kappa, V domains shown)
VH: QVQLQESGPGLVKPSETLSLTCTVSGGSISNYYWTWIRQPPGKGLEWIGYISDSGSTNYNPSLKSRVTISVDTSKNQFSLKLSSVTAADTAVYYCARETIVVRGFYFYVMDVWGQGTTVTVSS
VL: AIQLTQSPSSLSASVGDRVTITCRASQGISSALAWYQQKPGKAPKLLIYEASNWESGVPSRFSGSGSGTDFTLTISSLQPEDFATYYCQQFNSYPWTFGQGTKVEIKR
notes: Variant of P21
As to B3, the “Average IC50” value with human IL-18Rβ on cells came out at 1.23 nM. The Kd with huIL-18Rβ-HisAvi [5] is 0.26 nM; in the experiment with huIL-18Rβ-HisAvi [6] it was 0.24 nM; with huIL-18Rβ-HisAvi [7] it was 0.18 nM; with huIL-18Rβ-HisAvi [8], 0.51 nM; with huIL-18Rβ-HisAvi [1] it was 0.37 nM; with cyIL-18Rβ-HisAvi [2] it was 13 nM. Moreover, the Kd in the experiment with huIL-18Rβ-HisAvi [3] was determined as 0.63 nM; with cyIL-18Rβ-HisAvi [4] it was 8.7 nM. For the same molecule, the koff in the experiment with huIL-18Rβ-HisAvi [5] was determined as 7.2e-05 s⁻¹; in the experiment with huIL-18Rβ-HisAvi [6], 6.5e-05 s⁻¹; with huIL-18Rβ-HisAvi [7], 4.9e-05 s⁻¹; in the experiment with huIL-18Rβ-HisAvi [8], 0.00014 s⁻¹; with huIL-18Rβ-HisAvi [1], 0.00017 s⁻¹; with cyIL-18Rβ-HisAvi [2], 0.0031 s⁻¹. The koff in the experiment with huIL-18Rβ-HisAvi [3] was 0.00022 s⁻¹; in the experiment with cyIL-18Rβ-HisAvi [4], 0.0047 s⁻¹. The kon with huIL-18Rβ-HisAvi [5] was 270000 M⁻¹ s⁻¹; with huIL-18Rβ-HisAvi [6], 270000 M⁻¹ s⁻¹; with huIL-18Rβ-HisAvi [7], 270000 M⁻¹ s⁻¹; in the experiment with huIL-18Rβ-HisAvi [8] it was 280000 M⁻¹ s⁻¹; with huIL-18Rβ-HisAvi [1], 460000 M⁻¹ s⁻¹; with cyIL-18Rβ-HisAvi [2], 250000 M⁻¹ s⁻¹. Besides, the kon in the experiment with huIL-18Rβ-HisAvi [3] was determined as 360000 M⁻¹ s⁻¹; with cyIL-18Rβ-HisAvi [4], 540000 M⁻¹ s⁻¹.
